Reference: patent WO2001072771A2

Key:
[1] = biological target: soluble IGF-1 receptor (human) (UniProt P08069); experiment: phage ELISA
[2] = biological target: soluble human insulin receptor (IR-Fc) (human) (UniProt P06213); experiment: phage ELISA
[3] = biological target: soluble IGF-1 receptor (human) (UniProt P08069); experiment: phage ELISA; non-fat milk blank 0.11
[4] = biological target: soluble human insulin receptor (IR-Fc) (human) (UniProt P06213); experiment: phage ELISA; non-fat milk blank 0.11
[5] = biological target: soluble IGF-1 receptor (human) (UniProt P08069); experiment: phage ELISA; non-fat milk blank 0.09
[6] = biological target: soluble human insulin receptor (IR-Fc) (human) (UniProt P06213); experiment: phage ELISA; non-fat milk blank 0.09
[7] = biological target: soluble IGF-1 receptor (human) (UniProt P08069); experiment: phage ELISA; non-fat milk blank 0.10
[8] = biological target: soluble human insulin receptor (IR-Fc) (human) (UniProt P06213); experiment: phage ELISA; non-fat milk blank 0.10

Binder	ratio over background [1]	ratio over background [2]	also measured
FYDAIDQLVRGSARAGGTRD [R20α-3-20E2-IR]	39.9	3.1	absorbance (405 nm) [3]: 2.15; absorbance (405 nm) [4]: 1.01
SMFVAGSDRWPGYGVLADWL [F2 phage]	–	–	absorbance (405 nm) [5]: 2.08; absorbance (405 nm) [6]: 1.43
TFYSCLASLLTGTPQPNRGPWERCR [20C-3-G3-IGFR]	32.3	1.2	–
GVRAMSFYDALVSVLGLGPSG [20E2B-1-A6-IGFR]	18.1	1.1	–
VRGFQGGTVWPGYEWLRNAA [R20β-4-E8-IR]	34.9	3.6	absorbance (405 nm) [7]: 2; absorbance (405 nm) [8]: 1.34
RLFYCGIQALGANLGYSGCV [R20 -4-20A12-IR]	39.9	2.4	–
QGGSASFYDAIDRLLRMRIGG [20E2A-4-F11-IGFR]	18.8	1.3	–
HLADGQFHEKFYDWFERQISSRCNDC [H2CA-3-E11-IGFR]	2.2	1	–
TSEVQRRSQDNFYDWFVAQVA [A6S-3-E2-IR]	24.7	9.8	–
CCTTEMWMDARDDPFYHKLSELVTGG [B6Hα-1-B5-IR]	20.5	1	–
RGCNDDGGKGWSDDPFYHKLSELICGG [B6Hα-1-A2-IR]	14.6	1	–
LKDGFYDYFWQRLHLGS [NNRPγ-4-B11-IR]	18.7	1.2	–
